Data: patent publication US20250129168A1 (DREN BIO, published 2025)

How the values were obtained:
[1] = biological target: T1, human Dectin-1 isoform A (human, UniProt Q9BXN2 1-247); experiment: flow cytometry on HEK-Blue hDectin-1a cells (summary table)
T1 construct: On HEK-Blue hDectin-1a cells (Invivogen); also called hDectin-1a
T1 sequence: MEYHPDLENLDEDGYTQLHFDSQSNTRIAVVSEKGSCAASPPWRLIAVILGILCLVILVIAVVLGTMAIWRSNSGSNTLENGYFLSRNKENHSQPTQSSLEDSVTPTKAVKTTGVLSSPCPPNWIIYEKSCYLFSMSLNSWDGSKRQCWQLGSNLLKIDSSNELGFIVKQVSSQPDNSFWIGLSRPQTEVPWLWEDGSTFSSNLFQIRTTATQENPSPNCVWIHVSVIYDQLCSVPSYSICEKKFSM

[2] = biological target: T2, cynomolgus monkey Dectin-1 (cynomolgus monkey, UniProt A0A2K5UXY6 35-281); experiment: flow cytometry, cynomolgus monkey monocytes
T2 construct: whole, on cells; also called cynomolgus Dectin-1; cyno Dectin-1
T2 sequence: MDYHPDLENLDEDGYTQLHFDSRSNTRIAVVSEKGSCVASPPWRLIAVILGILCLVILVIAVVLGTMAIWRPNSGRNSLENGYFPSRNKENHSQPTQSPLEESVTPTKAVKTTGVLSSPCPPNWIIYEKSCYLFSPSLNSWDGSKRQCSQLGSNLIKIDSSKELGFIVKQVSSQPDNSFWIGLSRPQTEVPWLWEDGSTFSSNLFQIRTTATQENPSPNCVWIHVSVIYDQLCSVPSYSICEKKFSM

[3] = biological target: T3, human Dectin-1 isoform B (human, UniProt Q9BXN2 1-247); experiment: flow cytometry on HEK-Blue hDectin-1b cells
T3 construct: On HEK-Blue hDectin-1b cells (Invivogen); also called hDectin-1b
T3 sequence: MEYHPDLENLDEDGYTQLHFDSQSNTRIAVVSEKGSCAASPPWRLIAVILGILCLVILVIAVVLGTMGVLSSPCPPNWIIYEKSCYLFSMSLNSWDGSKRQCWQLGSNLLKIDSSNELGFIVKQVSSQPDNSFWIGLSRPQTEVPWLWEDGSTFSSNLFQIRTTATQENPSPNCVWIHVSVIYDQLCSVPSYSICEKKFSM

[4] = biological target: T4, human Dectin-1 (isoform not given) (human, UniProt Q9BXN2 1-247); experiment: cell-based or functional assay
T4 chain: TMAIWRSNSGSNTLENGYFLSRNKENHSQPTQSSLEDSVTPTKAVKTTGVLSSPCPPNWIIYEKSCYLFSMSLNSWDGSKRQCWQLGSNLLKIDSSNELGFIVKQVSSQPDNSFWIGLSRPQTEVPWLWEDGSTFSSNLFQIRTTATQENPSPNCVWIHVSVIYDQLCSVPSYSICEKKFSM

[5] = biological target: T3, human Dectin-1 isoform B; experiment: flow cytometry on HEK-Blue hDectin-1b cells (summary table)
[6] = biological target: T1, human Dectin-1 isoform A; experiment: flow cytometry on HEK293F hDectin-1a FL cells
[7] = biological target: T4, human Dectin-1 (isoform not given); experiment: flow cytometry on human monocytes (summary table)
[8] = biological target: T1, human Dectin-1 isoform A; experiment: flow cytometry on HEK-Blue hDectin-1a cells
[9] = biological target: T1, human Dectin-1 isoform A; experiment: flow cytometry on HEK293F hDectin-1a FL cells (summary table)
[10] = biological target: T4, human Dectin-1 (isoform not given); experiment: flow cytometry on human monocytes
[11] = biological target: T4, human Dectin-1 (isoform not given); experiment: flow cytometry on Dectin-1-expressing HEK cells
[12] = biological target: T4, human Dectin-1 (isoform not given); experiment: flow cytometry on Dectin-1-expressing HEK cells, 4PL fit [upper panel]
[13] = biological target: T5, Trop-2 (human, UniProt P09758 27-323); experiment: flow cytometry on A431 cells (Trop-2-expressing)
T5 construct: whole, on cells
T5 sequence (looked up): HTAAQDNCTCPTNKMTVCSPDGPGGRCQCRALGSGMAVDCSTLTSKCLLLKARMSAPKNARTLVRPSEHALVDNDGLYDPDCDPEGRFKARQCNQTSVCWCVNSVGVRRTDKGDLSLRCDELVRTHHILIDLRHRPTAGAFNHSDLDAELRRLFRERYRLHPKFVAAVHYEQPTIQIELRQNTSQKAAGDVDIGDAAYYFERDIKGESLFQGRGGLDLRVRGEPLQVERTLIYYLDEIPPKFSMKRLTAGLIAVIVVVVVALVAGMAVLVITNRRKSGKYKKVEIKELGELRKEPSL

[14] = biological target: T6, Fc gamma receptor CD16a F variant (human, UniProt P08637); experiment: ELISA, plate coated with recombinant huCD16a (F variant), detection with peroxidase anti-human IgG F(ab')2, OD 450 nm - 630 nm
T6 construct: recombinant protein coated on the ELISA plate; also called recombinant huCD16a
T6 sequence (P08637 17-208 limits assumed, change not shown): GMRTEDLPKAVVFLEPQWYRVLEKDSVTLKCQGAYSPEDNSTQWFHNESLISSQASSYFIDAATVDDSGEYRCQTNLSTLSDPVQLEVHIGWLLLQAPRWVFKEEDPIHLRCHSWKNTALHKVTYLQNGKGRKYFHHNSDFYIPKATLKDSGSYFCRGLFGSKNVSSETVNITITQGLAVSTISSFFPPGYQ

B1: commercial anti-Dectin-1 antibody 15E2 (antibody, V domains shown)
VH: QWQLQQSGAELARPGASWKMSCKASGYTFTTYTMHWWKQRPGQGLEWIGYINPSSGYTNYNQKFKDKATLTADKSSSTASMQLSSLTSEDSAWYYCARERAVLVPYAMDYWGQGTSVTVSS
VL: QIVLTQSPAVMSASPGEKWTITCTASSSLSYMHWFQQKPGTSPKLWLYSTSILASGVPTRFSGSGSGTSYSLTISRMEAEDAATYYCQQRSSSPFTFGSGTKLEIK
With B1 the EC50 [1] was 1.2 nM, the EC50 [2] was 14 nM and the EC50 [3] was 9.3 nM. For the same binder, the “IFNg secretion in PBMC, immobilized antibody (fold change to isotype)” value [4] was 1.6 fold change to isotype, the “IL6 secretion in PBMC, immobilized antibody (fold change to isotype)” value [4] was 2.6 fold change to isotype and the “TNFa secretion in PBMC, immobilized antibody (fold change to isotype)” value [4] was 3 fold change to isotype. For the same binder, the EC50 [5] was 9.3 nM, the EC50 [6] was 1.4 nM and the EC50 [7] was 0.6 nM. The EC50 [8] was 1.2 nM, the EC50 [9] was 1.4 nM and the EC50 [10] was 0.6 nM.

B2: 2M24/Trop-2 hIgG1 bispecific antibody (bispecific antibody, V domains shown)
VH 1: QVQLVQSGAEVKKPGASVKVSCKSSGYTFTDYYIHWVRQAPGQGLEWMGWINPNSGDTNYAQKFQGRITMTRDTSISTAYLELSRLRSDDTAVFYCARNSGSYSFGYWGQGTLVTVSS
VL 1: DIQMTQSPSSVSASVGDRVTITCRASQGISSWLAWYQQKPGKAPKLLIFGASSLQSGVPSRFSGSGSGTDFTLTVSSLQPEDFATYYCQQAYSFPFTFGPGTKVDIE
VH 2: QVQLQQSGSELKKPGASVKVSCKASGYTFTNYGMNWVKQAPGQGLKWMGWINTYTGEPTYTDDFKGRFAFSLDTSVSTAYLQISSLKADDTAVYFCARGGFGSSYWYFDVWGQGSLVTVSS
VL 2: DIQLTQSPSSLSASVGDRVSITCKASQDVSIAVAWYQQKPGKAPKLLIYSASYRYTGVPDRFSGSGSGTDFTLTISSLQPEDFAVYYCQQHYITPLTFGAGTKVEIK
notes: Human IgG1; also called anti-Dectin-1 (2M24)/anti-Trop-2 bispecific antibody
B2 was tested, and the “EC50 (read off the curve)” value [11] was roughly 3 nM.

B3: 2M24/Nectin-4 hIgG1 bispecific antibody (bispecific antibody, V domains shown)
VH 1: B2 VH 1
VL 1: B2 VL 1
VH 2: EVQLVESGGGLVQPGGSLRLSCAASGFTFSSYNMNWVRQAPGKGLEWVSYISSSSSTIYYADSVKGRFTISRDNAKNSLSLQMNSLRDEDTAVYYCARAYYYGMDVWGQGTTVTVSS
VL 2: DIQMTQSPSSVSASVGDRVTITCRASQGISGWLAWYQQKPGKAPKFLIYAASTLQSGVPSRFSGSGSGTDFTLTISSLQPEDFATYYCQQANSFPPTFGGGTKVEIK
notes: Human IgG1
B3 was tested, and the EC50 [12] was 2.65 nM.

B4: parental anti-Trop2 monospecific antibody (antibody, V domains shown)
VH: B2 VH 2
VL: B2 VL 2
For B4, the “EC50 (read off the curve)” value [13] was roughly 8 nM.

B5: 2M24 CD20 NF (bispecific antibody)
chain 1: not shown
chain 2: not shown
chain 3: not shown
chain 4: QIVLSQSPAILSASPGEKVTMTCRASSSVSYIHWFQQKPGSSPKPWIYATSNLASGVPVRFSGSGSGTSYSLTISRVEAEDAATYYCQQWTSNPPTFGGGTKLEIKRTVAAPSVFIFPPSDEQLKSGTASVVCLLNNFYPREAKVQWKVDNALQSGNSQESVTEQDSKDSTYSLSSTLTLSKADYEKHKVYACEVTHQGLSSPVTKSFNRGEC
modifications: non-fucosylated Fc glycan
In the case of B5, the “EC50 (read off the curve)” value [14] is reported as roughly 0.1 µg/mL.
